# From PMC9513805, “A natural transdifferentiation event involving mitosis is empowered by integrating signaling inputs with conserved plasticity factors”
# B1: lim-6 intron 4 probe 1 (dsDNA)
# DNA 1: TACGATTTGCAAACAACAAACATTCCAGACAGAT
# DNA 2: ATCTGTCTGGAATGTTTGTTGTTTGCAAATCGTA
# B2: lim-6 intron 4 probe 2 (dsDNA)
# DNA 1: CTGCTACCGTAGTGCTTTGTTGATTTAACACACA
# DNA 2: TGTGTGTTAAATCAACAAAGCACTACGGTAGCAG
# Assays:
# [1] = molecular target: SOX-2;HMG-POP-1 (Caenorhabditis elegans;Caenorhabditis …, UniProt Q21305;Q10666 1-283;181-281, |); assay: EMSA; SOX-2 125-500 nM added to HMG-POP-1; upper shift, most probably ternary complex; 20 mM Tris-HCl pH 8.0, 100 mM NaCl, 100 ug/mL BSA, 1 mM EDTA, 1 mM DTT, 0.1% NP-40; 20 min on ice (supershift 30 min at room temperature), 200 ng Cy5 probe; 6%; details: protein: recombinant;recombinant; tags: N-terminal 6xHis, C-terminal HA (pSJ6094);N-terminal 6xHis (pSJ769); copies: 1;1; label: Cy5 on forward strand; blunt
# Sequence of SOX-2;HMG-POP-1 (Q21305 whole entry, chain 1 of 2): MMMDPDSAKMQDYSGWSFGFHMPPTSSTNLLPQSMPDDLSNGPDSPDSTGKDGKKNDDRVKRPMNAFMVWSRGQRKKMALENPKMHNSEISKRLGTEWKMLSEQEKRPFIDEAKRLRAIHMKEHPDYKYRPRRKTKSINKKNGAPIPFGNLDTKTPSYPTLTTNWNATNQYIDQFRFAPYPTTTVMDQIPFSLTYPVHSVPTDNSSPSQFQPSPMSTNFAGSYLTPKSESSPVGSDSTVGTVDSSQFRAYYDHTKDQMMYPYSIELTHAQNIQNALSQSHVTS
# Sequence of SOX-2;HMG-POP-1 (Q10666 181-281, chain 2 of 2): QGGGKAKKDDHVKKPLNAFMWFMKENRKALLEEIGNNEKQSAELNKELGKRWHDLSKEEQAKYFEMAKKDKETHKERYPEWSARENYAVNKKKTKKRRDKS
# [2] = molecular target: T1, SOX-2;HMG-POP-1-FLAG (Caenorhabditis elegans;Caenorhabditis …, UniProt Q21305;Q10666 1-283;181-281, |); assay: EMSA supershift; anti-FLAG; 20 mM Tris-HCl pH 8.0, 100 mM NaCl, 100 ug/mL BSA, 1 mM EDTA, 1 mM DTT, 0.1% NP-40; 20 min on ice (supershift 30 min at room temperature), 200 ng Cy5 probe; 6%; details: protein: recombinant;recombinant; tags: N-terminal 6xHis, C-terminal HA (pSJ6094);N-terminal 6xHis, C-terminal FLAG (pSJ1107); copies: 1;1; label: Cy5 on forward strand; blunt
# T1 sequence (Q21305 whole entry, chain 1 of 2): as the sequence (Q21305 whole entry, chain 1 of 2) above
# T1 sequence (Q10666 181-281, chain 2 of 2): as the sequence (Q10666 181-281, chain 2 of 2) above
# [3] = molecular target: T1, SOX-2;HMG-POP-1-FLAG; assay: EMSA; co-incubation; upper co-binding band, supershift series with anti-HA and/or anti-FLAG; 20 mM Tris-HCl pH 8.0, 100 mM NaCl, 100 ug/mL BSA, 1 mM EDTA, 1 mM DTT, 0.1% NP-40; 20 min on ice (supershift 30 min at room temperature), 200 ng Cy5 probe; 6%; details: protein: recombinant;recombinant; tags: N-terminal 6xHis, C-terminal HA (pSJ6094);N-terminal 6xHis, C-terminal FLAG (pSJ1107); copies: 1;1; label: Cy5 on forward strand; blunt
Binder,binding result [1],binding result [2],binding result [3]
B1,binds,binds,
B2,,,binds
